Data set [1] deals with Thermococcus kodakaraensis Gins51ΔC (Met1-Arg130) (Thermococcus kodakaraensis). Briefly: SEC; Superdex 200 PC 3.2/30 on a SMART system; 50 mM Tris-HCl pH 8.0, 0.15 M NaCl, 7 mM β-mercaptoethanol, 0.1 mM EDTA; 20 μl of each protein at 20 μM; fractions on SDS-PAGE. A general note: Size exclusion chromatography separates by hydrodynamic size, large species first.
Data set [2] deals with the molecule itself. The data set is described as above.
Data set [3] concerns the molecule itself. Briefly: SEC + other: electron microscopy; data not shown (Ogino et al.).

A word on the stoichiometry N: it is the number of molecules, sites or subunits per partner or assembly. On to “Thermococcus kodakaraensis Gins51ΔC (Met1-Arg130) (domain or fragment)”, for which the stoichiometry N in data set [1] worked out at 2.

B1: Thermococcus kodakaraensis Gins23 (natural protein, UniProt Q5JIT2 1-164, looked up)
chain: MFTGKALIAVKVMKPFGDWKSGDIVLVEDWKARELWEAGVVEIVDETDKIIGEIDKVIAEERESEPLTLLPEGLYERAEFYAYYLENYVRLNPRESVDTINVKLTKLANLRKKLRDLKLIRFNKILKAVMLRPNSLELLSRLAPEERRIYLQMSKIRNEWLGDA
notes: Gins23 subunit of the GINS complex of Thermococcus kodakaraensis; gins23 gene cloned into modified pET28 (thrombin site replaced by a TEV protease site); 94 to 100 and 132 to 133 missing); The final atomic model holds seven amino acids derived from the N-terminal tag; also called TkoGins23; BA-type subunit of TkoGINS; source: E. coli codonPlus (DE3)-RIL, co-expressed with Gins51, purified (heat …
Turning to B1, the “stoichiometry N” value in data set [2] turned out to be 2.

B2: Thermococcus kodakaraensis Gins51 (natural protein, UniProt Q5JF31 1-188, looked up)
chain: MDIVKLRELLEAELSSTDLNELDEDFYVEFDSLIKALKLSAESSRERGEDVEERLYLAQLKIAESLMKEIIKLRLHKIVDLAVEGKIAEMTAEEKRLFNVIRAFIEREELPEISEEVQPQEESEAEAEYRSKEVPKEAYIIQIDLPAVLGPDMKEYGPFMAGDMAIIPTVIGRALVEREAARRVRIFL
notes: Gins51 subunit of the GINS complex of Thermococcus kodakaraensis; gins51 gene cloned into pET21a; also called TkoGins51; AB-type subunit of TkoGINS; source: E. coli codonPlus (DE3)-RIL, co-expressed with Gins23, purified (heat 80°C, HiTrap Phenyl, hydroxyapatite, HiTrap Q)
With B2, in data set [2], the “stoichiometry N” value was 2.

B3: Thermoplasma acidophilum GINS subunit (TacGins) (natural protein, UniProt Q9HJC8 1-233, looked up)
chain: MKPADIDKLISEIRTAIYAEQSHRKIIEIDPDIYRKVRAALSDLQAEASEYFQKQDIENYLTMNNRFQTLKRDFRSLFQRRFEKIVAKAIYDISGETLSLLTDEEKEFIEKIHNIITEEFESFIPKREEKNEARAEAQPAPADESPTAIADQKPQEEPQVVQDQHQPPAEIPSENIEIKKEDGRYVLVMITEDLPPIAQLDRNYSLHSNDLVYLPQDLASILAKRKVALVLDQ
notes: TacGins, conserved hypothetical protein of Thermoplasma acidophilum, gene Ta1042 cloned into pET21a; the homology model counts residues 1 to 233; also called Ta1042; source: E. coli BL21 codonPlus (DE3)-RIL, purified (heat 60°C, polyethyleneimine, HiTrap Phenyl, HiTrap Q)
For B3, the “stoichiometry N” value in data set [3] was 4.
